Experimental data from the nanobody polyreactivity screen of Harvey et al. (2022).

Assay: yeast display, Sf9 membrane polyspecificity reagent, FACS + sequencing; frameworks hold sequencing errors
How it was run: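 Synthetic nanobody libraries on Saccharomyces cerevisiae BJ5465 were galactose-induced for 36–48 hours, stained 1 hour at 4 °C with 10% biotinylated, detergent-solubilized Sf9 membrane reagent and enriched on streptavidin microbeads. FACS then separated cells into low and high (top ~1%) gates by anti-HA (expression) and streptavidin (reagent binding) fluorescence. Genes were colony-PCR amplified, MiSeq 2 × 250 sequenced and CDR-length filtered. A clone's polyreactivity label is that of its gate of origin.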

Row | Sequence | polyreactivity (PSR sort gate)
1 | QVQLVESGGGLVQAGGSLRLSCAASGFIFSWNAMGWYRQAPGKERELVAGISWSGGSTYYADSVKGRFTISRDNAKNTVYLQMNSLKPEDTAVYYCAKEPSVGTGGVYRYGRGDYWGQGTQVTVSS | low polyreactivity
2 | QVQLVESGGGLVQAGGSLRLSCAASGFIFSWYAMGWSRQAPGKERELVAAIDQSGDSTYYADSVKGRFTISRDNAKNTVYLQMNSLKPEDTAVYYCAAQSYDYWYDYDYWGQGTQVTVSS | high polyreactivity
3 | QVQLVESGGGLVQAGGSLRLSCAASGFIFSWYAMGWSRQAPGKERELVAAISHDGGSTYYADSVKGRFTISRDNAKNTVYLQMNSLKPEDTAVYYCAAAFRAAGRTVRYYWGQGTQVTVSS | high polyreactivity
4 | QVQLVESGGGLVQAGGSLRLSCAASGFIFSWYAMGWYRQAPGKERELVAAITSGGSTYYADSVKGRFTISRDNAKNTFYLQMNSLKPEDTAVYYCGTVVTYRYAFPYGYWGQGTQVTVSS | high polyreactivity
5 | QVQLVESGGGLVQAGGSLRLSCAASGFIFSYAMGWYRQAPGKERELVAAISKSGGRTYYADSVKGRFTISRDNAKNTVYLQMNSLIPEDTAVYYCAVRDLHLSNARYNYWGQGSQVTVSS | high polyreactivity
6 | QVQLVESGGGLVQAGGSLRLSCAASGFIFSYNAMRWYRQAPGKERELTYADSVKGRFTISRDNAKNTVYLQMNSLKPEDTAVYFCAAGEYGRQYDGDYWGQATQVTVSS | low polyreactivity
7 | QVQLVESGGGLVQAGGSLRLSCAASGFIFSYYAKGWYRQAPGKERELVAAIDGSGGSTYYADSVKGRFTISRDNAKNTVYLQMNSLKPVDTAVYYCNTLIFIQGLGYDYWGQGTQVTVSS | high polyreactivity
8 | QVQLVESGGGLVQAGGSLRLSCAASGFIFSYYAMGWYRQAPGKERELVAAISSGGSTYYADSVKGRFTISRDNAKNSVYLQMNSLKPEDTAVYYCAAAIWYIILYFVRRTEHGYWGQGTQVTVSS | low polyreactivity
9 | QVQLVESGGGLVQAGGSLRLSCAASGFIFTDNAMGWYRQAPGKESEFVAAITYSGGSTYYADSVKGRFTISRDNAKNTVYLQMNSLKPEDTAVYYCNKDFFPAPVVVTAYEYEYWGQGSQVTVSS | low polyreactivity
10 | QVQLVESGGGLVQAGGSLRLSCAASGFIFTGYAMGWYRQAPGKERELVATISRRGGSTYYADSVKGRFTISRDNAKNTVYLQMNSLKPEDTAVYYCAAQRTLYRSGFDSWGQGTQVTVSS | high polyreactivity
11 | QVQLVESGGGLVQAGGSLRLSCAASGFIFTIYAMGWYRQAPGKERELVAAISSGGSTTYADSVKGRFTISRDNAKNTVYLQMNSLKPEDTAVYYCNAGVDPFGSLLPFTDQYDYWGQGTQVTVSS | low polyreactivity
12 | QVQLVESGGGLVQAGGSLRLSCAASGFIFTNVMGWYRQAPGKERELVAAISGRGTSTYYADSVKGRFTISRDNAKNTVYLQMNSLKPEDTAVYYCAAYFTSRLDYWGQGTQVTVSS | high polyreactivity
13 | QVQLVESGGGLVQAGGSLRLSCAASGFIFTPYAMGWYRQAPGKERELVAAIRSGTSTNYADSVKGRFTISRDNAKNTVYLQMNSLKPEDTAVYYCAAEEGLIDGRAWYGYWGQGTQVTVSS | low polyreactivity
14 | QVQLVESGGGLVQAGGSLRLSCAASGFIFTPYAMGWYRQAPGKERELVAAITWRGARTYYADSVKGRFTISRDIAKNSVYLQMNSLKPEDTAVYYCAALSRRSYAPRDDYWGQGTQVTVSS | high polyreactivity
15 | QVQLVESGGGLVQAGGSLRLSCAASGFIFTPYTMGWYRQAPGKERELVAAITDGSSTYYADSVKGRFTISRDNAKNTVYLQMNSLKPEDTAVYYCAAVPRYQYGYWGQGTQVTVSS | low polyreactivity
16 | QVQLVESGGGLVQAGGSLRLSCAASGFIFTQYAMGWYRQAPGKERELVAGITSSGNTYYADSVKGRFTISRDNAKNPVYLQMNSLKPEDTAVYYCAARSASRRMDYWGQGTQVTVSS | high polyreactivity
17 | QVQLVESGGGLVQAGGSLRLSCAASGFIFTRNAMGWYRQAPGKERELVAAISASGGRTYYADSVKGRFTISRDNAKNTVYLQMNSLKPEDTAVYYCNTGIYVARSTYGRFKYDYWGQGTQVTVSS | high polyreactivity
18 | QVQLVESGGGLVQAGGSLRLSCAASGFIFTRNAMGWYRQAPGKERELVATISRSGSSTSYADSVKGRFTISRDNAKNTVYLQMNRLKPEDTAVYYCAATYIYRHSVISRYDYWGQGTQVTVSS | high polyreactivity
19 | QVQLVESGGGLVQAGGSLRLSCAASGFIFTSYARGWYRQAPGKDRELVAAITRSGASTSYADSVKGRFTISRDNAKNTVYLQMNSLKPEDTAVYYCAAKAPLPRYYVPRYDYWGQGTQVTVSS | high polyreactivity
20 | QVQLVESGGGLVQAGGSLRLSCAASGFIFTTYAMGWSRQAPGKEWELVAAISTSGGRTYYADSVKGRFTISRDNAKNTVYLQMNSLKPEDTAVYYCNTYSYYSYDWGQGTQVTVSS | high polyreactivity

Row | Sequence | polyreactivity (PSR sort gate)
21 | QVQLVESGGGLVQAGGSLRLSCAASGFIFTTYDMGWYRQAPGKEMELVAAITGSGGRTYYADSVKGRFTISRDNAKNTVYLQMNSLKPEDTAVYYCAARWGNVRFRYGYWGQGTQVTVSS | high polyreactivity
22 | QVQLVESGGGLVQAGGSLRLSCAASGFIFTWYAMGWYRQAPGKEREFVAAITSRGTSTYYADSVKGRFTISRDNAKNTVYLQMNSLKPEDTAVYYCAARASYTRRHVGRPYDYWGQGTQVTVSS | high polyreactivity
23 | QVQLVESGGGLVQAGGSLRLSCAASGFIFTWYAMGWYRQAPGKEREFVAGISRSGGRTYYADSVKGRFTISRDNAKNTVYLHVNSLKPEVTAVFYCGAKYYIGFWLRDYYYWGQCTQVTVSS | high polyreactivity
24 | QVQLVESGGGLVQAGGSLRLSCAASGFIFTWYTMGWYRQAPGKERELVAAITSGGNTNYADSVKGRFTISRDNAKNTVYLQMNSLKPEDTAVYYCARGYLASRLKFAKYDYWGQGTQVTVSS | high polyreactivity
25 | QVQLVESGGGLVQAGGSLRLSCAASGFIFTYNDMGWYRQAPGKERELVASITWDGGRTYYADAVKGRCTISRDNAKNTVYLQMISLKPEDTADYYCAKRLGGSPIQARGDYWGQGTQVTVSS | low polyreactivity
26 | QVQLVESGGGLVQAGGSLRLSCAASGFIFVAYAMGWSRQAPGKERELVAAITSSGGRTYYADSVKGRFTISRDNAKNTVYLQMNSLKPEDTAVYYCAARVYRSAKGYNYWGQGTQVTVSS | high polyreactivity
27 | QVQLVESGGGLVQAGGSLRLSCAASGFIFVDYAMGWYRQAPGTERELVAAITSSGDRTYYADSVKGRFTISRDNAKNTVYLQMNSLKPEDTAVYYCNADWSTAWYTSYDYWGQGTQVTVSS | low polyreactivity
28 | QVQLVESGGGLVQAGGSLRLSCAASGFIFVFNAMGWYRQAPGKERELVAAITWSAGSTYYADSVKGRFTISRDTAKKTVDLQKNSLKPEDTAVYYCAADNWPWPEKPDKSILYDYWGQGTQVTVSS | low polyreactivity
29 | QVQLVESGGGLVQAGGSLRLSCAASGFIFVFYDMGWYRQAPGKERELVAGITRNDGSTYYADSVKGRFKISRDNAKNTVYLQMNSLKPEDTAVYYCAAESAGSYLDYYWAYGYWGQGTQVTVSS | low polyreactivity
30 | QVQLVESGGGLVQAGGSLRLSCAASGFIFVKNAMGWYRQAPGKERELVATINCGSSTTYADSVKGRFTISRDNAKNTVYLQMNSLKPEDTAVYYCNADDVENWTEYDYWGQGTQVTVSS | low polyreactivity
31 | QVQLVESGGGLVQAGGSLRLSCAASGFIFVLNVMGWYRQAPGKERELVAAITWRGTSTYYADSVKGRFTISRDNAKNTVYLQMNSLKPEDTAVYYCAVKGFSTRSYREFDYWGQGTQVTVSS | low polyreactivity
32 | QVQLVESGGGLVQAGGSLRLSCAASGFIFVLYAMGWYRQAPRKERELVAAISRGGSSTYYADSVKGRFTISRDNAKNTVYLQMNSLKPEATAVYYCAARIRNWPAMDYWGQGTQVTVSS | high polyreactivity
33 | QVQLVESGGGLVQAGGSLRLSCAASGFIFVNNVMGWYRQAPGKERELVAAISRRGGSTYYADSVKGRFTISRDNAKNTVYLQMNSLKPEDTAVYYCARRGPDFSWKYDYWGQGTQVTVSS | high polyreactivity
34 | QVQLVESGGGLVQAGGSLRLSCAASGFIFVVYAMGWYRQAPGKERELVATISSGGGTYYADSVKGRFTISRDNAKNTVYLQMNSLKPEDTAVYYCAARRRRLYHFGGNNYWGQGTQVTVSS | high polyreactivity
35 | QVQLVESGGGLVQAGGSLRLSCAASGFIFVVYAMGWYRQAPGTERDLVATISSGGGTYYADSVKGRFTISLDNAKNTVYLQMNSLKPEDTAVYYCAARRRRLYHFGGNNYCGQGTQVTVSS | high polyreactivity
36 | QVQLVESGGGLVQAGGSLRLSCAASGFIFVWNAMGWYRQAPGKERELVANIRDGGITYADSVKGRFTITRDNAKNTVYLQMNSLKPEDTAVYYCARTNFYRSYEPGGRFYNYDYWGQGTQVTVSS | low polyreactivity
37 | QVQLVESGGGLVQAGGSLRLSCAASGFIFVYGNVMGWYRQAPGKERELVASITSDGGSTNYADSVKGRFTISRDNAKNTVYLQMNSLKPEDTAVYYCNADVPRGFGGEYDYWGQGTQVTVSS | low polyreactivity
38 | QVQLVESGGGLVQAGGSLRLSCAASGFIFVYYAMGWYRQAPGKERELVAAISGHGGRTYYADSVKGRFTISRDNAKNTVYLQLNSLKPEDTAVYYCAALLYWRGYGYNYWGQGTQVTVSS | high polyreactivity
39 | QVQLVESGGGLVQAGGSLRLSCAASGFIFWGNAMGWYRQAPGKERELVAAINYSGGRTYYSDSVKGRFTISRDNAKNTVYLQMNSLKPEDTAVYYCAATGPVNRASYDYWGQGTQVTVSS | high polyreactivity
40 | QVQLVESGGGLVQAGGSLRLSCAASGFIFWGNAMGWYRQAPGKERELVAAITYSGDRTYYADSVKGRFTISRDNAKNTVYLQMNSLKPEDTAVYYCNADLALRSRYGEYDYWGQGTQVTVSS | high polyreactivity
